Assay results published in publication PMC7671035 (mAbs, 2020).
One block for each binder: values may come before it.

How the values were obtained:
[1] = target: mouse CXCL1 (Mus musculus, UniProt P12850); test: SPR
[2] = target: rat CXCL1 (Rattus norvegicus, UniProt P14095); test: SPR
[3] = target: rat CXCL3 (Rattus norvegicus, UniProt Q10746); test: SPR
[4] = target: mouse CXCL3 (Mus musculus, UniProt Q6W5C0); test: SPR
[5] = target: rat CXCL2 (Rattus norvegicus, UniProt P30348); test: SPR
[6] = target: mouse CXCL2 (Mus musculus, UniProt P10889); test: SPR
Sequence of mouse CXCL2 (P10889 28-100): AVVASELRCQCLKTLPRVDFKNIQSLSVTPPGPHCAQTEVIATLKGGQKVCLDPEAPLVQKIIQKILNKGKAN

[7] = target: human CXCL17 (Homo sapiens, UniProt Q6UXB2); test: ELISA
Sequence of human CXCL17 (Q6UXB2 22-119): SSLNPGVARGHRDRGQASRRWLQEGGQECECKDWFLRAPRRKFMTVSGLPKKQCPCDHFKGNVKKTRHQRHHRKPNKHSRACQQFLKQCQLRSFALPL

[8] = target: human CXCL13 (Homo sapiens (Human)., UniProt O43927); test: ELISA
Sequence of human CXCL13 (O43927 23-109): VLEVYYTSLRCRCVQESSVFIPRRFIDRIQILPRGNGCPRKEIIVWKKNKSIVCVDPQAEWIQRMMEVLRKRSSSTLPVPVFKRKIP

[9] = target: human CXCL14 (Homo sapiens, UniProt O95715); test: ELISA
Sequence of human CXCL14 (O95715 35-111): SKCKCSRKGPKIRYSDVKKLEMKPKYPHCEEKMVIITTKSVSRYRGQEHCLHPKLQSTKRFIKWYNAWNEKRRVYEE

[10] = target: human CXCL4 (Homo sapiens (Human)., UniProt P02776); test: ELISA
Sequence of human CXCL4 (P02776 32-101): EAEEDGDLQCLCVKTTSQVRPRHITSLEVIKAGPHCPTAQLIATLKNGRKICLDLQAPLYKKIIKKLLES

[11] = target: human CXCL12 (Homo sapiens, UniProt P48061); test: ELISA
Sequence of human CXCL12 (P48061 22-93): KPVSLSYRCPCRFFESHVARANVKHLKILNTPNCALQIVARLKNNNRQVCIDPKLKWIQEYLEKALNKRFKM

[12] = target: human CXCL10 (Homo sapiens (Human)., UniProt P02778); test: ELISA
Sequence of human CXCL10 (P02778 22-98): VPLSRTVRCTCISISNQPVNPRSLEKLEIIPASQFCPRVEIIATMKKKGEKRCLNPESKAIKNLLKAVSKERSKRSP

[13] = target: human CXCL16 (Homo sapiens, UniProt Q9H2A7); test: ELISA
Sequence of human CXCL16 (Q9H2A7 30-254): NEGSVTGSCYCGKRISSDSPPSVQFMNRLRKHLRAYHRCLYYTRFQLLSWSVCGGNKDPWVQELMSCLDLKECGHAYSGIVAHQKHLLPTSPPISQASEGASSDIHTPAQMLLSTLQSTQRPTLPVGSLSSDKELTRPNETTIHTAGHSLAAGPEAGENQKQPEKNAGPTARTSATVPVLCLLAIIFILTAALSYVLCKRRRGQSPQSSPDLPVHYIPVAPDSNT

[14] = target: human CXCL1 (Homo sapiens, UniProt P09341)
Sequence of human CXCL1 (P09341 35-107): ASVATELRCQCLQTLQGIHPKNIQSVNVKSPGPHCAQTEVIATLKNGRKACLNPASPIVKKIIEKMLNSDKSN

Sequence of mouse CXCL1 (P12850 25-96): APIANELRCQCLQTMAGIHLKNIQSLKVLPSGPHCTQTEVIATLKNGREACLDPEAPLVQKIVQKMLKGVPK
Sequence of mouse CXCL3 (Q6W5C0 32-100): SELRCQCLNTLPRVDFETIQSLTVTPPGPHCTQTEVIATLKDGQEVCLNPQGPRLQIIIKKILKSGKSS
Sequence of rat CXCL3 (Q10746 33-101): as the sequence (Q6W5C0 32-100) above, with S1R, N9K, T18N, G52A, I57K, K60Q, I62L, G66D counted along it
Sequence of rat CXCL2 (P30348 32-100): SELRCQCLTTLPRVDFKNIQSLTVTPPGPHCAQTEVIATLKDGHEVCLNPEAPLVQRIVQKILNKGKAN
Sequence of rat CXCL1 (P14095 25-96): as the sequence (P12850 25-96) above, with I3V, M15V, L20F, L29M, S31P, L58M counted along it

Kd [1]: ~0.2 nM
Kd [2]: ~0.2 nM
Kd [3]: ~0.2 nM
Kd [4]: ~0.2 nM
Kd [5]: ~0.2 nM
Kd [6]: ~0.2 nM
binding result [7]: no binding (tested: 20 µg/mL)
binding result [8]: no binding (tested: 20 µg/mL)
binding result [9]: no binding (tested: 20 µg/mL)
binding result [10]: no binding (tested: 20 µg/mL)
binding result [11]: no binding (tested: 20 µg/mL)
binding result [12]: no binding (tested: 20 µg/mL)
binding result [13]: no binding (tested: 20 µg/mL)
B1: LY3041658 (antibody, V domains shown)
VH: QVQLVQSGAEVKKPGASVKVSCKASGYEFTSYWIHWVRQAPGQGLEWMGNISPNSGSANYNEKFKSRVTMTRDTSTSTVYMELSSLRSEDTAVYYCAREGPYSYYPSREYYGSDLWGQGTLVTVSS
VL: EIVLTQSPATLSLSPGERATLSCRASQSISNNLHWYQQKPGQAPRLLIYYTSRSVSGIPARFSGSGSGTDFTLTISSLEPEDFAVYYCGQNNEWPEVFGGGTKVEIK

binding result [14]: binds
B2: 1581 (antibody, V domains shown)
VH: QVHVKQSGAELVKPGASVRLSCTASGYTFTSYWMHWVKQRPGQGLEWIGNINPNSGSANYNEKFKSKATLTVDTSSSTAYMQLSSLTSEDSAVYYCTREGPYSYYPVRVYYGLDYWGQGTSVTVSS
VL: DIVLTQSPATLSVTPGDRVSLSCRASQSISNNLHWYQQKSHESPRLLIKYTSQSVSGIPSRFSASGSGTDFTLSINSVETEDFGMYFCQQSNSWPLTFGAGTKLELK
